These results are taken from the DeepSol protein solubility set.

This data set is described as follows: soluble on expression in E. coli; label from the status in PepcDB or PDB records.
In the case of “MSLRLPMGLVAVLALVGTAAHAAPKGAEARMIATVDAEQARTLRFLEVMVNQNSGSRNLEGVRRLRDIVVPEFTALGFTSRWIPMERTGRAGHLVLTHKGRQGAKKLLLIGHLDTVFEPDSPFQTYVLNGEKATGPGVGDDKGGIAVILAAVRAMNAAGTLKGASIEVFLTGDEEEAGSPTEVARADLVAAARAADVALDFEGLSRENGRDMGSIARRSSQSWSLTVEAKSGHSSGVWGANAGDGAIYAAAKIVNAFRTELPEPWLTLNVGLIAGGAEAEVAEDNAHVSAQGKTNIIPGEVIARGDLRTLSPEQNRAAMRKMEEIVGRPYPGVTSARIAFSEGYPPMAPTEGNKALLARLNQVNATLGLPEMQPLDPMKRGAGDISFVAEYIDGLVGLGPHSTGDHAPGETVDVPSIWTQAKRAALLMTRLSAEKSAREGHHHHHH”, the “soluble on expression in E. coli” value is on record as “soluble”. For “MSLRPRVLLVEDSTSLAILYKQYVKDEPYDIFHVETGRDAIQFIERSKPQLIILDLKLPDMSGEDVLDWINQNDIPTSVIIATAHGSVDLAVNLIQKGAEDFLEKPINADRLKTSVALHLKRAKLEDLVENIQSTFDRHNYHGFIGSSLPMQAVYKTIDAVAPTSASVFIVGESGTGKEVCAEAVHRQSDRRDKPFIAINCGAIPRDLMESEIFGHVKGAFTGATTDRKGAATLAHGGTLFLDELCEMELEMQKTLLRFLQTGTYTPLGGTKEMKVDVRIICATNRDPLTEVEEGRFREDLYYRVHVVPIDMPPLRERGSDIVTLAKHFLTTYAKEDKKKFSNIDTEAQHVIKHYEWPGNVRQLQNIIRNIVVLNNDEKVTVAHLPAQLTQKKTQARTVTPVHVEGHHHHHH”, the “soluble on expression in E. coli” value is given as “soluble”.

As to “MSLRQFWFTMVKVDGTSMQPNLQNNERVVAFKTSKIKAGSVVVFNAYGLDPNQTDKNAVYVKRVIGMPGDTVRYTSSGKLYVNNKLVKQTYLKNKYQQTTGSFMANSHSKFTGWTLNSLSHDQGWAKSVTNNTVPKGYYFVLGDHRSVSNDGRYWGLVPKSKMIGVVKAWPWQNRKQYINNYQEGHHHHHH”, the “soluble on expression in E. coli” value was “soluble”. With “MSLRQIRTVIQYQTVRYDILPLSPVSRNRLAQVKRKILVLDLDETLIHSHHDGVLRPTVRPGTPPDFILKVVIDKHPVRFFVHKRPHVDFFLEVVSQWYELVVFTASMEIYGSAVADKLDNSRSILKRRYYRQHCTLELGSYIKDLSVVHSDLSSIVILDNSPGAYRSHPDNAIPIKSWFSDPSDTALLNLLPMLDALRFTADVRSVLSRNLHQHRLWEGHHHHHH” the entry was “not soluble”. To “MSLRRTCVIGAGPSGLAASRVLASRGIPFDCYEAGSGIGGLWRYGNDNGMSGVYASLHANISKESMSFSSLPMPDSYPVFPHHTQVLAYLESYAETFGLHGHIGLRTEVTSVRPVEGGGWEVTRRSRGGAEAETDRYTEVVVANGHHWDPRLPDPAVPGAGVFEGSAVHAHAYRSPEPYAGQRVLVVGMGNSGCEIAAEISRSAARTFLSARAVAHVFPKMLLGRPADHWAVSRAAVLPRFLKDPGMALLLRLARGAPALYGLPEPVRRPLAAHPSTSDELLVQLARGAVTAKPGIRSFGRDSVSFTDGSRETVDAVVYATGYSLSFPFLAPAVFAAPDGRTELYLRTVPPRLPGLFFMGLAQPAGAAFPLLEPQAEWIADLIEGEVLLPTPAEMTRSIARARERHDKVYAPSYRHGIEIDICAYRRALRRELREGHHHHHH” belongs “not soluble”; to “MSLRRTRIRFEAWTAENAHRYHSLAHALPQLGARRPTGLLLDEAGRAAIPFLRTGQFIIGLGDPAGSERNCVAAIWRLRDLALQEGCKLAFIQVGQSLMAVYNDLGLTVCPDRTAGTVCCFSEDYRMLRAFLKGEERLARKREGHHHHHH”, “not soluble”. For “MSLRSIPSALQAKLDSGATTLARCWIVTRRDGVVMGFTDHDRDLTIGGVLCRAATGFTASEATSRFDLAVDGGEISGAFSDDSLSEADLAAGRYDAAGVATWLVDWSDVSLRIMIARGTIGEVRREGAAFTAELRGLADALAQDSGRLFTARCGVDLGDGKCRVDLASSAFRRSGTVTAVEGTSIVAVSGMSGLAAGWFTAGRLNWTGGANAGLAIEVKQHRVVAGVVRLSLWRAMAEPIAIGDSFVVTAGCDKSFTTCRDRFANTSNFRGFPQIPGNDFVVSYPLPGSPDNGNGSKALEGHHHHHH”, the “soluble on expression in E. coli” value is “soluble”. Regarding “MSLRSYLGSISTSKTEVNSMKMHVLKLLIPTMALLLSACASLPPELGNPDDKSVVTQYSAWLERDPATQSPVRMGGVVANISNQKDRTRVELVNLPIDSAGRPNIHQEPQGRFVAYVPGFLDPITYGEGRLLTLYGTTAPSEQGKVGDYEHTYPVMNAQGYHLWRVEERVEVDDIGPYMFPCRGFYCWPRTMPERDGKIIQEVKEGGSHHHHHH”, the “soluble on expression in E. coli” value is “soluble”. Regarding “MSLRVKYFGTDGIRGIFGETLTDELAFKVGKALGEIVGEGKVIVGKDTRVSGDSLEAAISAGLTSMGVDVLLCGILPTPAVALLTRITRSFGVVISASHNPPEYNGIKVLKGGYKIPDEMEAEIEKRLENGSFLTRSVVGRTKSFREGRDMYIGAVLEMFRDLDLTGEMVSLDLANGATTTTAREVFEFLGAKVEVFNDSQDGLLINQGCGATHPRFLAEEMKNGKVGFTFDGDGDRVIAVDEERNVVNGDRIIGILAVGLKEEGRLNSDTVVGTVMTNGGLEDFLKEKGIRLLRTKVGDKYVLEKMLESGANLGGERSGHIIILDRSTTGDGLITALELMRVLKRSGRKLSDFAKEIPDYPQITKNVRRTERMSLENENLRKIVEESTSRGYRVVIRPSGTEPVIRITVEGKDREEIEKIVEEISRVLESEGHHHHHH”, the “soluble on expression in E. coli” value is recorded as “soluble”. Consider “MSLRWLSLNTATVRKQGDLVAIIDACAKHGIRAIDPWRDQVASVGLDRAARAVRDAGLELSGYCRGGMFTSDASRRGEVRDDNRRCVDEAKALGAPCIVLVVGGLPQYSRPGSEPSKDIAAARGQVEEALADMLDYARQAGLPLAIEPLHPAYAADRACVNTTKQALDICDRLDPGRTGMLGVALDVYHIWWDPELMSQIARAGRDRLLAFHVCDWLVPTRDILNDRGMMGDGVIDIKSVRKAVEAQGFAGYSEIEIFSNDWWAKPMDEVLRTCITRHRTVVEGHHHHHH”, for which the “soluble on expression in E. coli” value is listed as “not soluble”. Take “MSLRYKVGEVAARLGLTLRTLKYYEELGLVTPERTDSRYRMYSEADVQRLERIRRMRALGLSLGTIQAISTHPQESDPDGRQVLTQEALHTLESDLSSQLTVLSTRITAAEKELKDARALRRDVQRDLDYVQRRLAGAQVGELLREKDPAEGHHHHHH”: the “soluble on expression in E. coli” value is “not soluble”. Regarding “MSLRYLRFLTAGESHGKGLTAILEGIPANLPLSEEEINHELRRRQRGYGRGGRMKIEKDTAEILSGVRFGKTLGSPIALFIRNRDWENWKEKMAIEGEPSPSVVPFTRPRPGHADLSGGIKYNQRDLRNILERASARETAARVAVGAVCKKFLSEFGIKIGSFVVSIGQKEVEELKDKSYFANPEKLLSYHEKAEDSELRIPFPEKDEEFKTYIDEVKEKGESLGGVFEVFALNVPPGLGSHIQWDRRIDGRIAQAMMSIQAIKGVEIGLGFEAARRFGSQVHDEIGWSEGKGYFRHSNNLGGTEGGITNGMPIVVRVAMKPIPTLKNPLRSVDIETKEEMKAGKERTDIVAVPAASVVGEAMLAIVLADALLEKLGGDFMEEVKKRFEDYVNHVKSF”, the “soluble on expression in E. coli” value was “soluble”. In the case of “MSLSAAEALTRIDRFVCDIKETQYGDGLHVFGAGDHGTGEIDGLIAALSARFVPPGPSGSPYRGRSDVRPTGRNLFTTDPRAVPSRAAYTQGVKLAEELLRKHLQDHGDWPKGLVMDMWGSATIRTAGEEFAMALHLAGLSPRWDDGSDRVSGFDILPLALLNRPRIDVTLRVSGLFRDMFPGLAQLFETAIAKLAERPETAADNPYLVQTPRVFGPRPGSYGLGIGTAMDDYSDEARTAAGEAWLAASSYAIDARGEITYARDALETQLTRADSFVHLQDLPETDLLMAEDYAAHEAGFAAAMQRLGKGGAAALYHLDATRPDQPRARTLTEELARVVRARAANPDWATGMMAHGFRGAAEIAATLDHLAAFAHLAGVVPDHLFDAMFDATLGRDDLVDFMQDANPQALAALRARFDALHRAGLWTSRRNSVLAELGTPAEGHHHHHH”, the “soluble on expression in E. coli” value was “soluble”.
